T1: GLP-1 receptor (GLP-1R) on the surface of mouse beta pancreatic tumor cells β-TC-6 (mouse, UniProt O35659 22-463)
T1 construct: whole, on cells; Endogenous receptor of the mouse cell line
T1 sequence (looked up): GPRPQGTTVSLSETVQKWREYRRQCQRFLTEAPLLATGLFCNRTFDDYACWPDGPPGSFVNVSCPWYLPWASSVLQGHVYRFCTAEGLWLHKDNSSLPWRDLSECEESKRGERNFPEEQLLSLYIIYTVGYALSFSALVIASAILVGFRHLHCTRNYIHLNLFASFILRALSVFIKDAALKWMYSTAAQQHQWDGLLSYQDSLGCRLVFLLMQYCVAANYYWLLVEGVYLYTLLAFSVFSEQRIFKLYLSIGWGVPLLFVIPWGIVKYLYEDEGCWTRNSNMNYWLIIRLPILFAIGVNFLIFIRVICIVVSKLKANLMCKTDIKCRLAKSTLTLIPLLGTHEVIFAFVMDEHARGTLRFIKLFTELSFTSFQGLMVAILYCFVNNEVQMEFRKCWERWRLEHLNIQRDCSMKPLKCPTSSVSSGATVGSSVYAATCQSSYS

B1: GLP-1-Fc-1 fusion protein (Fc fusion)
chain: HGEGTFTSDVSSYLEEQAAKEFIAWLVKGGGGGGGSGGGGSGGGGSVECPPCPAPPVAGPSVFLFPPKPKDTLMISRTPEVTCVVVDVSHEDPEVQFNWYVDGVEVHNAKTKPREEQFNSTFRVVSVLTVVHQDWLNGKEYKCAVSNKGLPAPIEKTISKTKGQPREPQVYTLPPSREEMTKNQVSLTCLVKGFYPSDIAVEWESNGQPENNYKTTPPMLDSDGSFFLYSKLTVDKSRWQQGNVFSCSVMHEALHNHYTQKSLSLSPGK
notes: also called GLP-1-Fc (IgG2)
B2: GLP-1-Fc-2 fusion protein (Fc fusion)
chain: HGEGTFTSDVSSYLEEQAAKEFIAWLVKGGGGGGGSGGGGSGGGGSERKCCVECPPCPAPPVAGPSVFLFPPKPKDTLMISRTPEVTCVVVDVSHEDPEVQFNWYVDGVEVHNAKTKPREEQFNSTFRVVSVLTVVHQDWLNGKEYKCKVSNKGLPAPIEKTISKTKGQPREPQVYTLPPSREEMTKNQVSLTCLVKGFYPSDIAVEWESNGQPENNYKTTPPMLDSDGSFFLYSKLTVDKSRWQQGNVFSCSVMHEALHNHYTQKSLSLSPG
notes: also called GLP-1-Fc (IgG2)
B3: GLP-1-Fc-3 fusion protein (Fc fusion)
chain: HGEGTFTSDVSSYLEEQAAKEFIAWLVKGGGGGGGSGGGGSGGGGSVECPPCPAPPVAGPSVFLFPPKPKDTLMISRTPEVTCVVVDVSHEDPEVQFNWYVDGVEVHNAKTKPREEQFNSTFRVVSVLTVVHQDWLNGKEYKCKVSNKGLPAPIEKTISKTKGQPREPQVYTLPPSREEMTKNQVSLTCLVKGFYPSDIAVEWESNGQPENNYKTTPPMLDSDGSFFLYSKLTVDKSRWQQGNVFSCSVMHEALHNHYTQKSLSLSPG
notes: also called GLP-1-Fc (IgG2)

Target: T1, GLP-1 receptor (GLP-1R) on the surface …
Experiment: cell ELISA on fixed β-TC-6 cells, anti-human IgG-HRP detection

Binder | binding result
B1 | binds
B2 | binds
B3 | binds

Reference: US20160222079A1 (GENOR BIOPHARMA, published 2016)
